Laboratory results from patent US20160207996A1 (ARGEN X N V, published 2016).
Residue numbers refer to the chain shown, from its start.

T1: hNav1.5-loopA3-llFc (human)
T1 construct: also called Nav1.5 extracellular loop A3 llamaFc chimera
T1 chain: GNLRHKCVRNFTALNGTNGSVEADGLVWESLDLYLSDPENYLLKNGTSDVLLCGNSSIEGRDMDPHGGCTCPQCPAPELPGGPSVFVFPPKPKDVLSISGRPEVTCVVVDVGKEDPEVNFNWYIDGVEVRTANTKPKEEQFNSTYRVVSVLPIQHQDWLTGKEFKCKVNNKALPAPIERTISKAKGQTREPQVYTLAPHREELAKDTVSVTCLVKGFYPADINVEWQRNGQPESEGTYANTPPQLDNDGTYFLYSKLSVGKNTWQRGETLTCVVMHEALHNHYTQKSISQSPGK

T2: hNav1.7-loopB1-C1-D1-llama Fc (human)
T2 construct: whole entry: loops B1, C1, D1 joined by linkers, llama Fc; also called hNav1.7-loopB1-C1-D1-llfc
T2 chain: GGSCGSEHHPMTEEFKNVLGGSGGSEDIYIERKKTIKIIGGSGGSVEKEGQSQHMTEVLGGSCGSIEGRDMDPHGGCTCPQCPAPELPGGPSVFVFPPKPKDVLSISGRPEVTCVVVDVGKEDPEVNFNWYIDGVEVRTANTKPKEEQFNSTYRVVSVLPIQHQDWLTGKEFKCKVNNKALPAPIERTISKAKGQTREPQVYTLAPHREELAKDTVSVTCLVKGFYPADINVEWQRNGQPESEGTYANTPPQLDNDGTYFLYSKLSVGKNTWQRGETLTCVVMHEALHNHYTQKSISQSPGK

T3: hNav1.7-loopA3-llama Fc fusion (human)
T3 construct: also called hNav1.7-loopA3-llFc; loopA3-llamaFc chimera
T3 chain: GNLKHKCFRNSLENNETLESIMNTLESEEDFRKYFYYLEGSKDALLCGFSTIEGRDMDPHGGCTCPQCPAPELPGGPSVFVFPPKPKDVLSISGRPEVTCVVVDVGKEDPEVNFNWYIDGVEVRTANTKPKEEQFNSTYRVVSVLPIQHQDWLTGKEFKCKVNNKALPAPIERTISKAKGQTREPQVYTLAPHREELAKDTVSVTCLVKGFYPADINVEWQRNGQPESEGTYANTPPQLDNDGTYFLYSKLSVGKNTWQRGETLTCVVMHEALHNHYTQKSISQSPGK

T4: ratA3-llFc (rat)
T4 construct: also called rat Nav1.7 loopA3 llamaFc chimera
T4 chain: T3 chain with N10K, S11E, N14E, L25A, D30E, F31L, R32K

T5: hNav1.7-loopC3-llama Fc (human)
T5 construct: whole entry: loop C3, linker, llama Fc; also called hNav1.7-loopC3-llfc
T5 chain: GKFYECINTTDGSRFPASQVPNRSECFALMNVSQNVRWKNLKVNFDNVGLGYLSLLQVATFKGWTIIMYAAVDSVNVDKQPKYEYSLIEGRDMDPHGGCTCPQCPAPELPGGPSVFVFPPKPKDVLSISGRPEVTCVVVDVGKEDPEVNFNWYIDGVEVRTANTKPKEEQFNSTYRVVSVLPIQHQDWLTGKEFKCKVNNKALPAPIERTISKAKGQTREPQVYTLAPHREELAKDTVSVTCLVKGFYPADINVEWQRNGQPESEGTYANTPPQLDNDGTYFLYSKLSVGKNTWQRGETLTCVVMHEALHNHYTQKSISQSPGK

T6: RatB1-C1-D1-llFc (rat)
T6 construct: also called rat Nav1.7 loopB1-C1-D1 llamaFc chimera
T6 chain: T2 chain with R32K, S52T, Q53E, H54Y, T56D, E57Y

T7: hNav1.5-B1-C1-D1-llFc (human)
T7 construct: also called Nav1.5 extracellular loop B1-C1-D1 llamaFc chimera
T7 chain: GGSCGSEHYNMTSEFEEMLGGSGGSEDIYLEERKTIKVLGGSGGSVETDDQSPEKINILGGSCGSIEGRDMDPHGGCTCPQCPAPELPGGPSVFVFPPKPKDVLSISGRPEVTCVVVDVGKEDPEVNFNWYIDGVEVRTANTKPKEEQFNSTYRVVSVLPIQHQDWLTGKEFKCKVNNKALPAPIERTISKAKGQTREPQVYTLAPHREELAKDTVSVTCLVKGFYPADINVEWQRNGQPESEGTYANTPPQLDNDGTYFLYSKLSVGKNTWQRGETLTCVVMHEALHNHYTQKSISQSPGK

B1: 8B6 (antibody, human IgG1, V domains shown)
VH: EVQLQESGPGLVKPSQTLSLTCTVSGGSISTSGTGWSWIRQPPGKGLEWMGIIGYDGGTYYNPSLKSRTSISRDTSKNQFSLQLTSVTPEDTAVYYCARGLGPWGQGIQVTVSS
VL: DIQMTQSPSSLSASLGDRVTITCQASQGISKYLAWYQQKPGQAPKLLIYSASRLETGVPSRFSGSGSGTTFTLVISGLEAEDAGSYYCQQYYRAPATFGQGTKVELK
B2: 9H4 (antibody, human IgG1, V domains shown)
VH: EVQLVQPGAELRNPGASVKVSCKASGYIFTSAYIDWVRQAPGQGLEWMGRIDPEDGETRYAHQFRDRVTFTADTSTSTVYAELNSLRSEDTAVYYCAITIEGFWGQGTQVTVSS
VL: ATMLTQSPGSLSVVPGESASISCKTSRSLVHSDGKTYLSWLLQKPGQSPQRLIYQVSNRGSGVPDRFTGSGSGTDFTLKISGVKAEDAGVYYCAQATYYPLSFGSGTRVEIK

Assays:
[1] = molecular target: human Nav1.7 (full length) (human) (UniProt Q15858); test: cell-based or functional assay
[2] = molecular target: T1, hNav1.5-loopA3-llFc; test: binding ELISA on coated hNav1.5 loop A3-llama Fc, OD620
Description: (§1) The therapeutic potency of an anti-hNav1.7 antibody will highly depend on the lack of binding to other Nay family members. Of particular interest is hNav1.5, which is expressed on cardiac muscle cells. As such, cross-reactive binding of hNav1.7 antibodies to hNav1.5 could lead to heart failure. To assay the specificity of the mAbs derived from DNA immunization for hNav1.7, the corresponding loopA3 and loopB1-C1-D1 sequences of hNav1.5 were cloned as llamaFc chimera and cross-reactivity was determined using a binding ELISA (FIG. 8). All clones, except clone 9A6 and 9H4, show no cross-reactivity to hNav1.5. In addition, cross reactivity for hNav1.2 was tested for the loopA3-binding clones 8A7 and 8B6 using hNav1.2 and hNav1.7 derived monomeric, GST-tagged loopA3 peptides (Abnova, H00006326-Q01 (hNav1.2) and H00006335-Q01 (hNav1.7)). Again, no cross-reactive binding was observed.

[3] = molecular target: T2, hNav1.7-loopB1-C1-D1-llama Fc; test: binding ELISA on coated loop-llama Fc chimera (20 ng/well), OD620
Method: (§2) For all DNA-immunization derived mAbs the binding affinity for the various hNav1.7-loop-llama Fc chimeras was tested in a binding ELISA. Therefore, a Maxisorp plate (Nunc) was coated with 20 ng/well of hNav1.7-loopA3-llama Fc, hNav1.7-loopB1-C1-D1-llama Fc or hNav1.7-loopC3-llama Fc. Remainder of the ELISA setup is as described above. […] Only at very high concentration minor cross-reactivity is observed for some clones.

[4] = molecular target: T3, hNav1.7-loopA3-llama Fc fusion; test: ELISA, coated loopA3-llama Fc 10 ng/well, mAb titrated
Method: (§3) In a next experiment, the binding affinity of the loop-specific mAbs was determined and compared to reference mAbs as described in US2011/0135662 (for loop A3: UCB_932, for loopB1-C1-D1: UCB_983, for loopC3: UCB_1066; US2011/0135662). Affinities were determined using an ELISA with a loop-coating of 10 ng/well (loopA3-llama Fc), 20 ng/well (loop-B1-C1-D1-llama Fc) or 50 ng/well (loopC3-llama Fc). The remainder of the experimental setup was identical to abovementioned binding ELISAs. Most of the mAbs show pM affinity for the respective hNav1.7 extracellular loop they are binding. […] The EC₅₀ for the reference mAbs could not be determined (nd) from the ELISA data available because the binding was too weak.

[5] = molecular target: T8, GST-tagged hNav1.2-loopA3 (human, UniProt Q99250 273-362); test: binding ELISA on coated GST-tagged hNav1.2 loop A3 peptide, OD620
T8 construct: bought (Abnova); monomeric; also called hNav1.2 derived monomeric GST-tagged loopA3 peptide; Abnova H00006326-Q01; not shown: GST tag
Description: as §1

[6] = molecular target: T9, GST-tagged hNav1.7-loopA3 (human, UniProt Q15858 269-339); test: binding ELISA on coated GST-tagged hNav1.7 loop A3 peptide, OD620
T9 construct: monomeric GST-tagged peptide; also called hNav1.7-loopA3-GST; Nav1.7-loopA3-GST; not shown: GST tag
Description: as §1

[7] = molecular target: T4, ratA3-llFc; test: binding ELISA on coated rat Nav1.7 loop A3-llama Fc, OD620
[8] = molecular target: T5, hNav1.7-loopC3-llama Fc; test: binding ELISA on coated loop-llama Fc chimera (20 ng/well), OD620
Method: as §2

[9] = molecular target: T3, hNav1.7-loopA3-llama Fc fusion; test: as above
Method: as §2

[10] = molecular target: T2, hNav1.7-loopB1-C1-D1-llama Fc; test: ELISA, coated loop-B1-C1-D1-llama Fc 20 ng/well, mAb titrated
Method: mAbs originating from the loopA3-llama Fc immunization were assayed for their affinity for hNav1.7-loopA3. Therefore, a Maxisorp plate was coated with 10 ng/well of loopA3-llamaFc chimera and incubated overnight at 4° C. The next day, the plate was blocked with PBS+1% casein for 2 hours at RT. Subsequently a concentration gradient of antibodies was applied (range 0.25 pM-66 nM) for another hour. Antibody binding to loopA3 was detected using a HRP-conjugated anti-human Fc antibody (Abcam, Ab7499) (incubation 1 hour at RT, dilution 1/5000 in PBS+0.1% casein), followed by TMB addition and OD620 nm measurement. EC50 values were determined using GraphPad Prism software. For comparison purposes a known hNav1.7-loopA3 binding monoclonal antibody, UCB_932 (US2011/0135662), was tested.
as §3

[11] = molecular target: T6, RatB1-C1-D1-llFc; test: binding ELISA; the panel prints no target, by paragraph 562 the coated rat loop B1-C1-D1-llama Fc
[12] = molecular target: T7, hNav1.5-B1-C1-D1-llFc; test: binding ELISA; the panel prints no target, by paragraph 288 and paragraph 555 the coated hNav1.5 loop B1-C1-D1-llama Fc
Description: as §1

T8 sequence (Q99250 273-362 limits assumed): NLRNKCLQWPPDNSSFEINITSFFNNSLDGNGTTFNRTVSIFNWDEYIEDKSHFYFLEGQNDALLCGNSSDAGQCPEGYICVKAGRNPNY

| Binder | % inhibition of inward current following P02 voltage protocol, 10 µg/ml [1] [%] | % inhibition of inward current following P02 voltage protocol, 25 µg/ml [1] [%] | % inhibition of inward current following P02 voltage protocol, 100 µg/ml [1] [%] | binding result [2] | binding result [3] | EC50 [4] [nM] | binding result [5] | EC50 (read off the curve) [6] [nM] | EC50 (read off the curve) [7] [nM] | binding result [8] | binding result [9] | EC50 [10] [nM] | binding result [11] | binding result [12] |
| --- | --- | --- | --- | --- | --- | --- | --- | --- | --- | --- | --- | --- | --- | --- |
| B1 | 30.2 | 58.4 | 72.2 | no binding (tested: about 66 ng/ml (axis as labelled)) | no binding (tested: about 66 nM) | 0.37 | no binding (tested: about 130 nM) | ~0.5 | ~0.6 | – | – | – | – | – |
| B2 | 3.8 | 19.8 | 23.9 | – | – | – | – | – | – | binds | binds | 0.19 | binds | binds |
